# Reference: patent US20030100068A1
# Target: RANK (Receptor Activator of NF-kappa B) on primary murine osteoblasts (murine (primary murine osteoblasts)) (UniProt O35305)
# Test: cell-based or functional assay
# Chain of UniProt O35305 (O35305 31-625): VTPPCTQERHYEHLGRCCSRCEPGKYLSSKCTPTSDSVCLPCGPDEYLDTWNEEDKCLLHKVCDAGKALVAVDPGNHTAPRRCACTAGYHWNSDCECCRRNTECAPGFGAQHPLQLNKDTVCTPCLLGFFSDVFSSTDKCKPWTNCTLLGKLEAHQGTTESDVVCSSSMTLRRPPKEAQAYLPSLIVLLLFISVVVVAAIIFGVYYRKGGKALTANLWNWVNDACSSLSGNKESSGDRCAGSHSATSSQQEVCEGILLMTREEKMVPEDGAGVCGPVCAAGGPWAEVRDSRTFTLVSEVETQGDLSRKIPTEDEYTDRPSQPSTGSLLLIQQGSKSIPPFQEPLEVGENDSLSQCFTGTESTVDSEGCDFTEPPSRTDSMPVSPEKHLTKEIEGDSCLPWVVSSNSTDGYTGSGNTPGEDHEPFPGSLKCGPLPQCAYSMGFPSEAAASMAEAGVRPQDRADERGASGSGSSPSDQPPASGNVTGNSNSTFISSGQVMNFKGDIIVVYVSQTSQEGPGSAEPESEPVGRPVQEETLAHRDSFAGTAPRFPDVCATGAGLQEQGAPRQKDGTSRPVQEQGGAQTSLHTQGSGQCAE
row,Substance,"surface residence or internalization of RANK on primary osteoblasts exposed to 5 nM ligand (confocal microscopy, anti-RANK staining against membrane dye)"
1,GST-RANKL (fusion product of the external domain of RANKL and glutathione S-transferase) (from UniProt P08515) (ligand),> 1 h
2,cleaved RANKL (GST removed from GST-RANKL with human rhinovirus 3C protease) (ligand),< 1 h
